US20170369590A1 (Genmab, published 2017)
Where a chain is given by its changes, count along the chain named.

B1: HuMab 059 (antibody, V domains shown)
VH: QVQLVQSGAEVKKPGASVRVPCKASGYTFTRYGISWVRQAPGQGLEWMGWISAYNGKTYYAQKLQGRVTMTTDTSTSTAYMELRSLRSDDTAVYYCARSPLLWFEELYFDYWGQGTLVTVSS
VL: EIVLTQSPGTLSLSPGERATLSCRASQSVSSTYLAWYQQKPGQAPRLLIYGASSRATGIPDRFSGSGSGTDFTLTISRLEPEDFAVYYCQQYGTSLFTFGPGTKVDIK
notes: also called PC1014-059
B2: HuMab 132 (antibody, V domains shown)
VH: QVQLVQSGAEVKKPGASVKVSCKASGYTFTSYGISWVRQAPGQGLEWMGWISAYNGNSNYVQKFQGRVTMTTDTTTSTAYMELRSLTSDDTAVYYCAREYSYDSGTYFYYGMDVWGQGTTVTVSS
VL: EIVLTQSPATLSLSPGERATLSCRASQSVSSYLAWYQQKPGQAPRLLIYDASNRATGIPARFSGSGSGTDFTLTISSLEPEDFAVYYCQQRSNWPMYTFGQGTKLEIK
B3: HuMab 159 (antibody, V domains shown)
VH: EVQLVQSGAEVKKPGESLKISCKGSGYNFTSYWIGWVRQMPGKGLEWMGIIYPGDSDTRYSPSFQGQVTISADKSISTAYLQWSSLKASDTAMYYCARWGTYYDILTGYFNWFDPWGQGTLVTVSS
VL: DIQMTQSPSSLSASVGDRVTITCRASQGISSWLAWYQQKPEKAPKSLIYAASSLQSGVPSRFSGSGSGTDFTLTISSLQPEDFATYYCQQYYIYPWTFGQGTKVEIK
notes: also called TH1014-159; PC1014-159
B4: HuMab 098 (antibody, V domains shown)
VH: EVQLLESGGGLVQPGGSLRLSCAASGFTFSNYGMSWVRQAPGKGLEWVSAISGSAYSTYYADSVKGRFTISRDNSKNTLWLQMNSLRAEDTAVYYCAKAHYHGSGSYYTLFDYWGQGTLVTVSS
VL: B3 VL with Y92N, I93S, W96Y, V104L
notes: also called TH1014-098; PC1014-098
B5: HuMab 153 (antibody, V domains shown)
VH: QVQLVESGGGVVQPGRSLRLSCAASGFTFSDYVIHWVRQAPGKGLEWVTVISYDGSNKYYADSVKGRFTISRDNSKNTLYLQMNSLSAEDTAMYYCARGGITGTTGVFDYWGQGTLVTVSS
VL: B3 VL with A50D, S67Y, T72S, T85I, Y92K, I93S, W96I, K103R, V104L
B6: HuMab 111 (antibody, V domains shown)
VH: QVQLVQSGAEVKKPGSSVKVSCKASGGTFSSYGISWVRQAPGPGLEWMGRIIPILGIANYAQKFQGRVTITADKSTNTAYMELSSLRSEDTAVYYCARDQEYSSNWYYWGQGTLVTVSS
VL: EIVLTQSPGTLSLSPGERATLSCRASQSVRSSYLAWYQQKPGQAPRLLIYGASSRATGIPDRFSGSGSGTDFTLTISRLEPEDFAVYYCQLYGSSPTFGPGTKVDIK
B7: HuMab 106 (antibody, V domains shown)
VH: EVQLVQSGAEVKKPGESLKISCKGSGYSFTRYWIGWVRQMPGKGLEWMGIIYPGDSDTRYSPSFQGQVTISADKSISTAYLQWSSLKASDTAMYYCARLTGDRGFDYYSGMDVWGQGTTVTVSS
VL: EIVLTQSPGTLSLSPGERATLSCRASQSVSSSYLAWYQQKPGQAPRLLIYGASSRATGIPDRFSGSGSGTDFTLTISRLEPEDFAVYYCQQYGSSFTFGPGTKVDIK

How the values were obtained:
HER2ECDHis [1] = target: T1, HER2ECDHis (human, UniProt P04626 23-653, biotinylated in the cross-block ELISA (sites not given)); assay: ELISA; competitor 111
T1 construct: range 1-653; expressed in HEK-293F; also called soluble HER2; biotinylated HER2ECDHis

HER2ECDHis [2] = target: T1, HER2ECDHis; assay: ELISA; competitor 006
Description: (§1) Next, the ELISA wells were washed with PBST (PBS supplemented with 0.05% Tween-20 [Sigma-Aldrich, Zwijndrecht, The Netherlands]) and blocked for one hour at room temperature (RT) with PBSTC (PBST supplemented 2% [v/v] chicken serum [Gibco, Paisley, Scotland]). The ELISA wells were then washed with PBST and incubated for one hour at RT with HER2ECDHis serially diluted in PBSTC (0.25-2 μg/mL in 2-fold dilutions). […] The plate was thereafter washed with PBST and incubated for one hour with 0.1 μg/mL Streptavidin-poly-HRP (Sanquin, Amsterdam, The Netherlands) diluted in PBST. After washing, the reaction was visualized through a 15 minutes incubation with 2,2′-azino-bis (3-ethylbenzothiazoline-6-sulfonic acid) (ABTS: one ABTS tablet diluted in 50 mL ABTS buffer (Roche Diagnostics, Almere, The Netherlands)) at RT protected from light. The colorization was stopped by adding an equal volume of oxalic acid (Sigma-Aldrich, Zwijndrecht, The Netherlands). Fluorescence at 405 nm was measured on a microtiter plate reader (Biotek Instruments, Winooski, USA).
(§2) Each HER2 antibody was coated to the ELISA wells at the sub-optimal dose that was determined as described above. After blocking of the ELISA wells, the wells were incubated with the predetermined concentration of 1 μg/mL biotinylated HER2ECDHis in the presence or absence of an excess of a second (competitor) HER2 antibody. The ELISA was then performed as described above. […] Percentage competition was then determined as 100 minus the percentage of inhibition.

HER2ECDHis [3] = target: T1, HER2ECDHis; assay: ELISA; competitor F5
Description: as §1, §2

HER2ECDHis [4] = target: T1, HER2ECDHis; assay: ELISA; competitor Tras
Description: as §1, §2

HER2ECDHis [5] = target: T1, HER2ECDHis; assay: ELISA; competitor 059
Description: as §1, §2

HER2ECDHis [6] = target: T1, HER2ECDHis; assay: ELISA; competitor 060
Description: as §1, §2

HER2ECDHis [7] = target: T1, HER2ECDHis; assay: ELISA; competitor 005
Description: as §1, §2

[8] = target: T2, human epidermal growth factor receptor 2 (HER2), membrane-bound on cells (human, UniProt P04626 23-1255); assay: cell-based or functional assay
HER2ECDHis [9] = target: T1, HER2ECDHis; assay: ELISA; competitor 106
Description: as §1, §2

HER2ECDHis [10] = target: T1, HER2ECDHis; assay: ELISA; competitor C1
Description: as §1, §2

[11] = target: T2, human epidermal growth factor receptor …; assay: cell-based or functional assay; remark: listed apart in the source
HER2ECDHis [12] = target: T1, HER2ECDHis; assay: ELISA; competitor Pert
Description: as §1, §2

HER2ECDHis [13] = target: T1, HER2ECDHis; assay: ELISA; competitor 159
Description: as §1, §2

HER2ECDHis [14] = target: T1, HER2ECDHis; assay: ELISA; competitor 098
Description: as §1, §2

HER2ECDHis [15] = target: T1, HER2ECDHis; assay: ELISA; competitor 132
Description: as §1, §2

HER2ECDHis [16] = target: T1, HER2ECDHis; assay: ELISA; competitor 153
Description: as §1, §2

HER2ECDHis [17] = target: T1, HER2ECDHis; assay: ELISA; competitor tras
Description: as §1, §2

HER2ECDHis [18] = target: T1, HER2ECDHis; assay: ELISA; competitor pert
Description: as §1, §2

HER2ECDHis [19] = target: T1, HER2ECDHis; assay: ELISA; competitor 127
Description: as §1, §2

HER2ECDHis [20] = target: T1, HER2ECDHis; assay: ELISA; competitor 091
Description: as §1, §2

HER2ECDHis [21] = target: T1, HER2ECDHis; assay: ELISA; competitor 129
Description: as §1, §2

HER2ECDHis [22] = target: T1, HER2ECDHis; assay: ELISA; competitor 050
Description: as §1, §2

[23] = target: T2, human epidermal growth factor receptor …; assay: cell-based or functional assay; remark: listed apart in the source
HER2ECDHis [24] = target: T1, HER2ECDHis; assay: ELISA; competitor 025
Description: as §1, §2

HER2ECDHis [25] = target: T1, HER2ECDHis; assay: ELISA; competitor 169
Description: as §1, §2

HER2ECDHis [26] = target: T1, HER2ECDHis; assay: ELISA; competitor 084
Description: as §1, §2

Row | Binder | % binding vs no competitor (HER2ECDHis [1]) | % binding vs no competitor (HER2ECDHis [2]) | % binding vs no competitor (HER2ECDHis [3]) | % binding vs no competitor (HER2ECDHis [4]) | % binding vs no competitor (HER2ECDHis [5]) | % binding vs no competitor (HER2ECDHis [6]) | % binding vs no competitor (HER2ECDHis [7]) | % cells killed, AU565, anti-kappa-ETA'-conjugated [8] | EC50 of cell kill, AU565, anti-kappa-ETA'-conjugated [8] | % binding vs no competitor (HER2ECDHis [9]) | % binding vs no competitor (HER2ECDHis [10]) | EC50, fab-CypHer5E internalization, AU565 [11] | Maximal MFI, fab-CypHer5E internalization, AU565 [11] | % binding vs no competitor (HER2ECDHis [13]) | % binding vs no competitor (HER2ECDHis [14]) | % binding vs no competitor (HER2ECDHis [15]) | % binding vs no competitor (HER2ECDHis [16]) | % binding vs no competitor (HER2ECDHis [17]) | % binding vs no competitor (HER2ECDHis [18]) | % binding vs no competitor (HER2ECDHis [19]) | further results
1 | B1 | 12% | 11% | 128% | 117% | 12% | 11% | 13% | 67% | 0.0677 µg/mL | 23% | 78% | 0.0148 µg/mL | 77100 MFI |  |  |  |  |  |  |  | % binding vs no competitor (HER2ECDHis [12]): 107%
2 | B2 |  |  | 379% |  |  |  |  | 61.6% | 0.0394 µg/mL |  | 422% | 0.0114 µg/mL | 112000 MFI | 131% | 309% | 32% | 41% | 353% | 288% | 30% | 
3 | B3 |  |  | 86% |  |  |  |  | 70.3% | 0.0349 µg/mL |  | 96% |  | 92400 MFI | 6% | 11% | 79% | 40% | 111% | 112% | 15% | 
4 | B4 |  |  | 96% |  |  |  |  | 58.7% | 0.0121 µg/mL |  | 125% | 0.0138 µg/mL | 135000 MFI | 9% | 17% | 142% | 110% | 107% | 104% | 21% | % binding vs no competitor (HER2ECDHis [20]): 104%; % binding vs no competitor (HER2ECDHis [21]): 107%; % binding vs no competitor (HER2ECDHis [22]): 100%; % cells killed, A431, anti-kappa-ETA'-conjugated [23]: 87.2%; EC50 of cell kill, A431, anti-kappa-ETA'-conjugated [23]: 0.00165 µg/mL; % binding vs no competitor (HER2ECDHis [24]): 108%; % binding vs no competitor (HER2ECDHis [25]): 102%; % binding vs no competitor (HER2ECDHis [26]): 103%
5 | B5 |  |  | 96% |  |  |  |  | 60.3% | 0.0323 µg/mL |  | 257% | ~0.0149 µg/mL | 87500 MFI | 23% | 115% | 33% | 28% | 134% | 121% | 27% | % binding vs no competitor (HER2ECDHis [20]): 102%; % binding vs no competitor (HER2ECDHis [21]): 106%; % binding vs no competitor (HER2ECDHis [22]): 103%; % cells killed, A431, anti-kappa-ETA'-conjugated [23]: 82.4%; EC50 of cell kill, A431, anti-kappa-ETA'-conjugated [23]: ~0.0101 µg/mL; % binding vs no competitor (HER2ECDHis [24]): 97%; % binding vs no competitor (HER2ECDHis [25]): 111%; % binding vs no competitor (HER2ECDHis [26]): 107%
6 | B6 | 14% | 10% | 119% | 110% | 65% | 36% | 51% | 72% | 0.0242 µg/mL | 75% | 122% | 0.0352 µg/mL | 81700 MFI |  |  |  |  |  |  |  | % binding vs no competitor (HER2ECDHis [12]): 102%
7 | B7 | 21% | 25% | 495% | 323% | 25% | 23% | 25% | 59.1% | 0.108 µg/mL | 26% | 471% | 0.0686 µg/mL | 57400 MFI |  |  |  |  |  |  |  | % binding vs no competitor (HER2ECDHis [12]): 275%
